The target of assay [1] is Recombinant Human VEGFR2/KDR Protein, His tag (hVEGFR2-his) (human) (UniProt P35968). The assay can be described thus: competition ELISA: hVEGFR2-his coated (1 ug/ml), antibody titrated, then 0.3 ug/ml hVEGF-A added and bound VEGF-A detected; blocked ligand hVEGF-A. On the technique in general: An ELISA detects its analyte on a solid surface through an enzyme-linked reagent.

For assay [2] the target is unchanged. The assay can be described thus: ELISA, hVEGFR2-his coated (0.5 ug/ml), anti-human Fc-HRP.
The target of assay [3] is human VEGFR2 on HUVEC cells (human) (UniProt P35968). In words: flow cytometry on HUVEC cells, percent shifted cells (Shift %), anti-human IgG-PE.
Sequence of human VEGFR2 on HUVEC cells (human) (P35968 20-1356 V297I/Q472H limits assumed): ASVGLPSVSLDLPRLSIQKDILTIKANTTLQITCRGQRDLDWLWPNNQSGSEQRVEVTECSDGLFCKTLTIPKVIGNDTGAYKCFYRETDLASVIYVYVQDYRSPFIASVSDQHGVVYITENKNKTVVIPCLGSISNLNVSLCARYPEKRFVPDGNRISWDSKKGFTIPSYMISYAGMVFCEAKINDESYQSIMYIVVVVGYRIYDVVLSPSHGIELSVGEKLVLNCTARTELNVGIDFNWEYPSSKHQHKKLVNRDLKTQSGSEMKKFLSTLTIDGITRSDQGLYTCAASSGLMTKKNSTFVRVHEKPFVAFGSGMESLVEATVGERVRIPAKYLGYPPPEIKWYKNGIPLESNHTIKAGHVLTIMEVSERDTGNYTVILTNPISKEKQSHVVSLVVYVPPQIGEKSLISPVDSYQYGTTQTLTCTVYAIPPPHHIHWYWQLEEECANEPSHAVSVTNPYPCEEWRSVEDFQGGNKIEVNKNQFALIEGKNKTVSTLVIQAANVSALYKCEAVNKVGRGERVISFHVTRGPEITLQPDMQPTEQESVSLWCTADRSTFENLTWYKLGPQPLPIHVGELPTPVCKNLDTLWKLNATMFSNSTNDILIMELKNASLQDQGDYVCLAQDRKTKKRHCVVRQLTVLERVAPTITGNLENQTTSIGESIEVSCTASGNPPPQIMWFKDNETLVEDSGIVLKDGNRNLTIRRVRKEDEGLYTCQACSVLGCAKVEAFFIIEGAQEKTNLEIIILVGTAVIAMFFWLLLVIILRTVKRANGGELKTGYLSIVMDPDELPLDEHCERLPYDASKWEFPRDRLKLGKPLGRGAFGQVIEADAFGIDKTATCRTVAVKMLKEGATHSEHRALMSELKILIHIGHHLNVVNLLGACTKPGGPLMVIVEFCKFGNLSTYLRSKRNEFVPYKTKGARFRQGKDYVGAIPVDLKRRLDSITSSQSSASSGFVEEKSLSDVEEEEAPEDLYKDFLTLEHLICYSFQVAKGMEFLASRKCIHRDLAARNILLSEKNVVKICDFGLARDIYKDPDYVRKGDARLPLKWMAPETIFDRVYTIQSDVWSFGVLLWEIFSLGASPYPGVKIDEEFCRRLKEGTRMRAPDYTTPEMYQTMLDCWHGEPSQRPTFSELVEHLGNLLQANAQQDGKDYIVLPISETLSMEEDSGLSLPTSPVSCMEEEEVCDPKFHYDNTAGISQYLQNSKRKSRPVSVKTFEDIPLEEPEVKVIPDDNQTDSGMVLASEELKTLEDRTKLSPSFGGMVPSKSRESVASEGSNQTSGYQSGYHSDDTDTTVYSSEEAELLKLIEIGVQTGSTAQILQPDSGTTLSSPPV
In assay [4] the target is Recombinant Rhesus macaque VEGFR2/KDR Protein, His tag (rhesus macaque). In words: ELISA, rhesus VEGFR2-his coated, anti-human Fc-HRP.
Sequence of Recombinant Rhesus macaque VEGFR2/KDR Protein, His tag (rhesus macaque) (chain, as listed by the source): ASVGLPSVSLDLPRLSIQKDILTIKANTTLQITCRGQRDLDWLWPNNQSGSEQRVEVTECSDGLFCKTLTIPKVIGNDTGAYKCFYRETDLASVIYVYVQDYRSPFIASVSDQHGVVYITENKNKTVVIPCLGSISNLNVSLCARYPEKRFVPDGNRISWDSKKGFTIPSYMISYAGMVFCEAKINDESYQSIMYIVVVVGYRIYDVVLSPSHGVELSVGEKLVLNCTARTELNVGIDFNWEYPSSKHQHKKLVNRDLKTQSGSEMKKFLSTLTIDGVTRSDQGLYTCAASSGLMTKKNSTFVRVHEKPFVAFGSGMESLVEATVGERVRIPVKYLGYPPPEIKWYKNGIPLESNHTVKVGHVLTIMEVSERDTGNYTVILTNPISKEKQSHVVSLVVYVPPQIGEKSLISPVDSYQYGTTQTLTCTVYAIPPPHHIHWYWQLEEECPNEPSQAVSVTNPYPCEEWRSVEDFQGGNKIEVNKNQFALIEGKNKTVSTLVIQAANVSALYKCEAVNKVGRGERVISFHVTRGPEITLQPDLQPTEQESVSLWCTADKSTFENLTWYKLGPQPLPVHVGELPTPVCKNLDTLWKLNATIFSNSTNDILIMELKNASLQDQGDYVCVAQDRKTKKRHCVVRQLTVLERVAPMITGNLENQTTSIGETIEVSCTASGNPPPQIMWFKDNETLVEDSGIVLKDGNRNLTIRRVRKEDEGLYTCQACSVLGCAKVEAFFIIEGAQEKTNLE
Assay [5] shares this target. The assay can be described thus: competition ELISA: VEGF-A coated (0.25 ug/ml), antibody titrated together with 1 ug/ml rhesus VEGFR2, detection with mouse anti-VEGFR2 serum and anti-mouse Fc-HRP; blocked ligand VEGF-A.
For assay [6], the target named is Recombinant Human VEGFR2/KDR Protein, His tag (hVEGFR2-his) (human) (UniProt P35968). In words: competition ELISA: VEGF-A coated (0.25 ug/ml), antibody mixed with VEGFR2, detection with mouse anti-VEGFR2 serum and anti-mouse Fc-HRP; blocked ligand VEGF-A.
In assay [7] the target is Recombinant Rhesus macaque VEGFR2/KDR Protein, His tag (rhesus macaque). The assay can be described thus: ELISA, rhesus VEGFR2-his coated, anti-human Fc-HRP. This is another data set of the same source.
The target in assay [8] is Recombinant Human VEGFR2/KDR Protein, His tag (hVEGFR2-his) (human) (UniProt P35968). The assay can be described thus: ELISA, human VEGFR2-his coated, anti-human Fc-HRP.
The target of assay [9] is human VEGFR2 on HUVEC cells (human) (UniProt P35968). In words: flow cytometry on HUVEC cells, MFI, anti-human IgG (H+L)-PE. On the technique in general: Flow cytometry measures light scatter and fluorescence of single cells or particles in a stream.
Assay [10] addresses Recombinant Human VEGFR2/KDR Protein, His tag (hVEGFR2-his) (human) (UniProt P35968). The assay can be described thus: competition ELISA: VEGF-A coated (0.25 ug/ml), antibody titrated together with 1 ug/ml human VEGFR2, detection with mouse anti-VEGFR2 serum and anti-mouse Fc-HRP; blocked ligand VEGF-A.

Read-outs that look alike come from different tables or passages of the source.

As a reminder, the IC50 is the concentration that gives 50% inhibition. What is called EC50 is the midpoint of the concentration-response curve. What is called EC50 (read off the curve) is the concentration giving half of the maximal effect. A lower EC50 (read off the curve) goes with greater potency.

Sequence of Recombinant Human VEGFR2/KDR Protein, His tag (hVEGFR2-his) (human) (P35968 other isoform, or with tags, fused parts or gaps): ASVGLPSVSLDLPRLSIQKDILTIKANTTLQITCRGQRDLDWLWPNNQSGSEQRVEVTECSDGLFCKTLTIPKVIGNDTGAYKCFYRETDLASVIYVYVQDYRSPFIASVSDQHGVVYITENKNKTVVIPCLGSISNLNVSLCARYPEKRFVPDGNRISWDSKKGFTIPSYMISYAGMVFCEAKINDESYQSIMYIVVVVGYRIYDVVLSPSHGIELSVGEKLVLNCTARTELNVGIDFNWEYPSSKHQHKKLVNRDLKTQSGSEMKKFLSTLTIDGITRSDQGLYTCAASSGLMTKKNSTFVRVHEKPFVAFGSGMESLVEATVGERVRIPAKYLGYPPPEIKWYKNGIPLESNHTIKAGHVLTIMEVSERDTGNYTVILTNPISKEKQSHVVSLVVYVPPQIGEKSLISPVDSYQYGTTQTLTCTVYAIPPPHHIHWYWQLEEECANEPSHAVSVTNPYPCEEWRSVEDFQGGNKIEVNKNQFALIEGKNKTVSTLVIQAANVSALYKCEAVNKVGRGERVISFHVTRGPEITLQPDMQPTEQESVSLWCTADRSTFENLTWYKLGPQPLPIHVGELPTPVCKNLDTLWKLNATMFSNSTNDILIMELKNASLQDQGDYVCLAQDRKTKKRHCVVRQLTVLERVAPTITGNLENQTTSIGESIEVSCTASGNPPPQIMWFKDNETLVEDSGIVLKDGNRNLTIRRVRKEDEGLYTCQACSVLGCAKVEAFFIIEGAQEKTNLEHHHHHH

Consider 1121B (benchmark antibody, Ramucirumab), for which the half-maximal inhibitory concentration (IC50) in assay [1] was 0.0285 µg/mL; in assay [5] it was 0.805 µg/mL; in [6], 0.126 µg/mL; in assay [10], 0.849 µg/mL. Moreover, the EC50 in [2] was 0.00926 µg/mL; in assay [3] it was 0.0682 µg/mL; in assay [4], 0.00919 µg/mL; in assay [7], 0.0088 µg/mL; in assay [8], 0.00871 µg/mL. In addition, in assay [9], the EC50 (read off the curve) was found to be 0.1 µg/mL.

For the origin of these results see patent US20240209099A1.
